In article PMC10987521, “An all-in-one tetrazine reagent for cysteine-selective labeling and bioorthogonal activable prodrug construction” (Nature Communications, 2024):
“Also recorded” adds a separate entry of the source.

Tests used:
B16F10 cells [1] = experiment: Cellular uptake of RGD-Dox over various time intervals using flow cytometry; format: cell-based, Mouse
LX2 cells = experiment: Cell uptake by fluorescence imaging, LX2; format: cell-based, Human; details: αvβ3-negative, 10 μM, 2 h
[2] = Accumulation of RGD-Dox at various time points in tumor tissues; format: in vivo, mice; details: for tissue level at time molar at 0.5 h / tissue level at time molar at 1 h / tissue level at time molar at 2 h / tissue level at time molar at 4 h / tissue level at time molar at 6 h: BALB/c nude, mouse, tumor tissue, iv, 3.67 umol⸱/kg
Protocol: 13. In vivo anticancer efficacy
13.1 The accumulation of RGD-Dox at various time points in tumor tissues When the tumor volume reached approximately 400 mm3, five mice in each group received an i.v. injection of 3.67 μmol⸱kg-1 RGD-Dox. After various time intervals, the mice were sacrificed, and tumor tissues were dissected. About 0.5 to 1 g of tissue was ground into a homogenate, and proteins were precipitated by the adding two volumes of acetonitrile (1 mL). After centrifugation, the supernatant was removed, concentrated to 100 µL, and 20 µL was used for HPLC–MS analysis. The RGD-Dox concentration in the sample was determined from a standard curve of the peak area of the characteristic absorption of RGD-Dox at 520 nm. […]

B16F10 cells [3] = experiment: Cellular uptake of RGD-Dox over various time intervals using flow cytometry; format: cell-based, Mouse; remark: listed apart in the source
Protocol: concentration at the indicated time .
10. In vivo release evaluation of the RGD-FL
Subsequently, the cells were stained […]
laser scanning microscope. […]
μM) for 60 min. […] Blocking studies were performed by
Cells were pre-treated with 18- […]
specific times using a confocal laser scanning microscope.
11. Cell viability assays
After the incubation period, the
Subsequently, the cells were trypsinized and underwent three rinses with PBS.

B16F10 melanoma tumor = experiment: In vivo anticancer efficacy, subcutaneous B16F10 melanoma tumor model; parameters: species or system BALB/c nude mice; details: four i.v. courses, 3.67 μmol·kg^−1 (TCO-P4 36.7 μmol·kg^−1), n = 5
Protocol: Tumor-bearing mice were established by subcutaneously injecting a suspension of 5 × 10^5 B16F10 cells per mouse into the front flank of each nude mouse. When tumor volume reached 50−70 mm^3, the animals were randomly divided into five groups (n = 5). The mice were administered different compounds suspended in PBS via the tail vein every 3 days for a total of four times.
The mice underwent four treatment courses on day 0, day 3, day 6, and day 9. Tumor size and body weight were measured every day. Tumor volume was calculated via the following formula: V = 1/2 × (minor axis) × (major axis)[2].
After 12 days, the mice were sacrificed and dissected to obtain tumor tissues and main organs, including heart, liver, spleen, lung, and kidney. Subsequently, all tissues were fixed in a 4% paraformaldehyde solution, routinely paraffin-embedded and sectioned, and then stained with hematoxylin and eosin, as well as using TdT-mediated dUTP nick-end labeling (TUNEL) for subsequent pathological analysis. TUNEL-positive cells appeared fluorescent green, representing the apoptosis of tumor cells (nuclei were fluorescent blue, stained with DAPI).
13. In vivo anticancer efficacy […]
13.2 Calculation of the tumor growth inhibition values (TGI)
Tumor growth inhibition values (TGI) were calculated using the following formula: TGI (%) = (1 − RTVtreatment/
RTVcontrol)*100. RTV refers to relative tumor volume, representing the ratio of the volume at the end of treatment to the
volume at the beginning of treatment. […]

COc1cccc2c1C(=O)c1c(O)c3c(c(O)c1C2=O)C[C@@](O)(C(=O)CO)C[C@@H]3O[C@H]1C[C@H](NC(=O)OCc2nnc(CCSC[C@@H]3NC(=O)[C@@H](Cc4ccc(O)cc4)NC(=O)[C@H](CC(=O)O)NC(=O)CNC(=O)[C@H](CCCNC(=N)N)NC3=O)nn2)[C@H](O)[C@H](C)O1 [RGD-Dox]
cellular uptake of RGD-Dox (flow cytometry) (B16F10 cells [1]; 0.5 h, Data 2): 4811
cellular uptake of RGD-Dox (flow cytometry) (B16F10 cells [1]; 1 h, Data 1): 7075
cellular uptake of RGD-Dox (flow cytometry) (B16F10 cells [1]; 1 h, Data 2): 6214
cellular uptake of RGD-Dox (flow cytometry) (B16F10 cells [1]; 2 h, Data 2): 11247
cellular uptake of RGD-Dox (flow cytometry) (B16F10 cells [1]; 2 h, Data 3): 9887
cellular uptake of RGD-Dox (flow cytometry) (B16F10 cells [1]; 3 h, Data 1): 12006
cellular uptake of RGD-Dox (flow cytometry) (B16F10 cells [1]; 3 h, Data 2): 12578
cellular uptake of RGD-Dox (flow cytometry) (B16F10 cells [1]; 4 h, Data 2): 13144
cellular fluorescence (uptake) in LX2 cells (LX2 cells): negligible fluorescence
accumulation at the tumor tissue over time ([2]; 3.67 μmol·kg^−1 i.v., 0-6 hours, HPLC–MS 520 nm, n = 5): continuous increase in the accumulation of RGD-Dox at the tumor site within the first 0-2 hours, followed by a gradual decrease
accumulation of RGD-Dox in tumor tissues ([2]; 6 h, Data 3): 0.09596 nmol/g
tissue level at time molar at 0.5 h ([2]; Data 1): 0.253 nmol/g
tissue level at time molar at 0.5 h ([2]; Data 2): 0.122 nmol/g
tissue level at time molar at 0.5 h ([2]; Data 3): 0.145 nmol/g
tissue level at time molar at 0.5 h ([2]; Data 4): 0.161 nmol/g
tissue level at time molar at 0.5 h ([2]; Data 5): 0.185 nmol/g
tissue level at time molar at 1 h ([2]; Data 1): 0.311 nmol/g
tissue level at time molar at 1 h ([2]; Data 2): 0.321 nmol/g
tissue level at time molar at 1 h ([2]; Data 3): 0.226 nmol/g
tissue level at time molar at 1 h ([2]; Data 4): 0.407 nmol/g
tissue level at time molar at 1 h ([2]; Data 5): 0.29 nmol/g
tissue level at time molar at 2 h ([2]; Data 1): 0.249 nmol/g
tissue level at time molar at 2 h ([2]; Data 2): 0.239 nmol/g
tissue level at time molar at 2 h ([2]; Data 3): 0.408 nmol/g
tissue level at time molar at 2 h ([2]; Data 4): 0.321 nmol/g
tissue level at time molar at 2 h ([2]; Data 5): 0.3 nmol/g
tissue level at time molar at 4 h ([2]; Data 1): 0.296 nmol/g
tissue level at time molar at 4 h ([2]; Data 2): 0.245 nmol/g
tissue level at time molar at 4 h ([2]; Data 3): 0.274 nmol/g
tissue level at time molar at 4 h ([2]; Data 4): 0.16 nmol/g
tissue level at time molar at 4 h ([2]; Data 5): 0.217 nmol/g
tissue level at time molar at 6 h ([2]; 6 h, Data 1): 0.0949 nmol/g
tissue level at time molar at 6 h ([2]; 6 h, Data 2): 0.0855 nmol/g
tissue level at time molar at 6 h ([2]; 6 h, Data 4): 0.0867 nmol/g
tissue level at time molar at 6 h ([2]; 6 h, Data 5): 0.129 nmol/g
cellular uptake of RGD-Dox (flow cytometry) (B16F10 cells [3]; 0.5 h, Data 1): 4477
cellular uptake of RGD-Dox (flow cytometry) (B16F10 cells [3]; 0.5 h, Data 3): 4327
cellular uptake of RGD-Dox (flow cytometry) (B16F10 cells [3]; 1 h, Data 3): 6221
cellular uptake of RGD-Dox (flow cytometry) (B16F10 cells [3]; 2 h, Data 1): 10116
cellular uptake of RGD-Dox (flow cytometry) (B16F10 cells [3]; 3 h, Data 3): 12247
cellular uptake of RGD-Dox (flow cytometry) (B16F10 cells [3]; 4 h, Data 3): 12044
cellular uptake over time (flow cytometry) (B16F10 cells [3]; B16F10, 10 μM, 37 °C, 0.5–6 h, 488/610 nm): rapid increase observed within the first 2 hours, followed by a plateau and saturation thereafter; also recorded: high cellular uptake after 2 h
tumor growth / inhibition in words (B16F10 melanoma tumor): did not exhibit significant tumor inhibition; also recorded: rapid tumor growth
